The text below walks through data of the supplement of paper PMC7877785.

± gives the uncertainty stated by the source.

The series is described as follows: self-splicing fitness, log relative to wild type (ln ratio); higher = more splicing; Tetrahymena group I intron in knt gene, E. coli kanamycin selection, DiMSum; sequences stand for … in CUCUCU…GGAGGGAAAAGUUAUCAGGCAUGCACCUGGUAGCUAGUCUUUAAACCAAUAGAUUGCAUCGGUUUAAAAGGCAAGACCGUCAAAUUGCGGGAAAGGGGUCAACAGCCGUUCAGUACCAAGUCUCAGGGGAAACUUUGAGAUGGCCUUGCAAAGGGUAUGGUAAUAAGCUGACGGACAUGGUCCUAACCACGCAGCCAAGUCCUAAGUCAACAGAUCUUCUGUUGAUAUGGAUGCAGUUCACAGACUAAAUGUCGGUCGGGGAAGAUGUAUUCUUCUCAUAAGAUAUAGUCGGACCUCUCCUUAAUGGGAGCUAGCGGAUGAAGUGAUGCAACACUGGAGCCGCUGGGAACUAAUUUGUAUGCGAAAGUAUAUUGAUUAGUUUUGGAGUACUCGUGGUCG
In outline: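 Pooled colonies went to amplicon sequencing on an Illumina HiSeq 2500 after six replicate transformations. The plates were LB agar with 100 μg/mL carbenicillin, 50 μM IPTG and 0.2% rhamnose, with or without 25 μg/mL kanamycin, incubated overnight at 37°C or 30°C. The E. coli BL21(DE3) library had all eight P1ex-region intron nucleotides randomised, the intron placed in the knt kanamycin-resistance gene on pET-22b(+). DiMSum fitness is the error-weighted combination of replicate fold changes, kanamycin against none, normalised to wild type.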

As to CACCAGCAAUAUUACGCUCA, the “self-splicing fitness (ln)” value (30 °C) was -1.42 ± 0.12 and the “self-splicing fitness (ln)” value (37 °C) is -1.13 ± 0.17.
As for GUACAGCAAUAUUACGUUUA, the “self-splicing fitness (ln)” value runs as follows: (30 °C) -2.62 ± 0.15; (37 °C) -1.89 ± 0.11.
Taken in the same sequence, the figures for UUCAAGCAAUAUUACGGAUC were -1.5 ± 0.25 and -2.84 ± 0.21.
As for CCUUAGCAAUAUUACGCCAG, the “self-splicing fitness (ln)” value (37 °C) was -2.05 ± 0.45.
With GGGUAGCAAUAUUACGAGUC, the “self-splicing fitness (ln)” value is, setting by setting: (30 °C) -3.63 ± 0.26; (37 °C) -0.588 ± 0.17.
Taken in the same sequence, the figures for UUCCAGCAAUAUUACGCUUG were -2.97 ± 0.21 and -1.94 ± 0.22.
In the same order, the values of AAUAAGCAAUAUUACGGAUA are -2.35 ± 0.14 and -1.68 ± 0.15.
Consider ACAUAGCAAUAUUACGGCUA, for which the “self-splicing fitness (ln)” value runs as follows: (30 °C) -0.773 ± 0.055; (37 °C) -0.391 ± 0.068.
In the same order, the values of CAUUAGCAAUAUUACGCCCU are -2.38 ± 0.22 and -1.55 ± 0.24.
For AGGGAGCAAUAUUACGCUCA, the “self-splicing fitness (ln)” value was -1.16 ± 0.11 (30 °C) and -1.14 ± 0.13 (37 °C).
On to CUCAAGCAAUAUUACGCCAU, for which the “self-splicing fitness (ln)” value (37 °C) is -1.99 ± 0.37.
Turning to CAUAAGCAAUAUUACGGUAU, the “self-splicing fitness (ln)” value is, setting by setting: (30 °C) -4.64 ± 0.26; (37 °C) -2.94 ± 0.21.
For GUCCAGCAAUAUUACGACCG, the “self-splicing fitness (ln)” value (30 °C) is -2.21 ± 0.5.
In the case of ACCGAGCAAUAUUACGACGU, the “self-splicing fitness (ln)” value reads like this: (30 °C) -2.04 ± 0.1; (37 °C) -0.637 ± 0.11.
Taken in the same sequence, the figures for GUGCAGCAAUAUUACGAUCU were -0.791 ± 0.052 and -0.194 ± 0.062.
Turning to CAUAAGCAAUAUUACGUUUC, the “self-splicing fitness (ln)” value is, setting by setting: (30 °C) -3.35 ± 0.21; (37 °C) -2.26 ± 0.2.
As for UCGGAGCAAUAUUACGCGAU, the “self-splicing fitness (ln)” value by setting is: (30 °C) -3.51 ± 0.19; (37 °C) -2.42 ± 0.23.
Taken in the same sequence, the figures for GGGAAGCAAUAUUACGCAAA were -1.9 ± 0.24 and -2 ± 0.17.
In the same order, the values of UCACAGCAAUAUUACGCAUC are -4.21 ± 0.36 and -3.04 ± 0.4.
Taken in the same sequence, the figures for AGGCAGCAAUAUUACGCUUG were -2.81 ± 0.17 and -2.12 ± 0.23.
With AGAGAGCAAUAUUACGACUG, the “self-splicing fitness (ln)” value (30 °C) was -2.3 ± 0.2.
Consider CGGCAGCAAUAUUACGAACG, for which the “self-splicing fitness (ln)” value (30 °C) is -1.11 ± 0.11 and the “self-splicing fitness (ln)” value (37 °C) worked out at 0.693 ± 0.15.
Taken in the same sequence, the figures for GGCAAGCAAUAUUACGUUCC were -1.43 ± 0.11 and -0.714 ± 0.14.
Taken in the same sequence, the figures for CGUCAGCAAUAUUACGGAAU were -4.05 ± 0.37 and -2.83 ± 0.21.
As for ACAAAGCAAUAUUACGGAUA, the “self-splicing fitness (ln)” value by setting is: (30 °C) -2.14 ± 0.2; (37 °C) -1.68 ± 0.17.
With UUGGAGCAAUAUUACGAUGC, under “30 °C”, the “self-splicing fitness (ln)” value is -1.76 ± 0.28.
Consider CAACAGCAAUAUUACGCGAU, for which the “self-splicing fitness (ln)” value was -5.11 ± 0.45 (30 °C) and -2.63 ± 0.23 (37 °C).
In the same order, the values of GAAUAGCAAUAUUACGGUGC are -2.18 ± 0.22 and -2.78 ± 0.27.
Taken in the same sequence, the figures for UAGCAGCAAUAUUACGGGUG were -0.481 ± 0.058 and -0.431 ± 0.075.
Turning to UUCAAGCAAUAUUACGUUGU, the “self-splicing fitness (ln)” value (30 °C) was -3.87 ± 0.19 and the “self-splicing fitness (ln)” value (37 °C) is -1.34 ± 0.12.
Taken in the same sequence, the figures for CAUUAGCAAUAUUACGCGAG were -1.52 ± 0.11 and -0.923 ± 0.095.
For GCCCAGCAAUAUUACGAGGA, the “self-splicing fitness (ln)” value was -0.441 ± 0.075 (30 °C) and -0.147 ± 0.086 (37 °C).
In the same order, the values of GAGCAGCAAUAUUACGUGGU are -3.66 ± 0.25 and -2.25 ± 0.23.
In the same order, the values of ACGCAGCAAUAUUACGAUCG are -0.15 ± 0.049 and 0.252 ± 0.071.
Taken in the same sequence, the figures for UCACAGCAAUAUUACGCCUU were -3.82 ± 0.37 and -2.71 ± 0.41.
For the sequence AGUUAGCAAUAUUACGCCAA, for the setting “37 °C”, the “self-splicing fitness (ln)” value is -1.58 ± 0.43.
On the same count and under the same terms, then GAGGAGCAAUAUUACGCCUC, with -2.29 ± 0.42.
In the case of CGCUAGCAAUAUUACGAGCA, the “self-splicing fitness (ln)” value was -0.28 ± 0.098 (30 °C) and 0.344 ± 0.12 (37 °C).
In the same order, the values of GUUUAGCAAUAUUACGUAUG are -2.29 ± 0.21 and -0.712 ± 0.17.
In the same order, the values of AGCAAGCAAUAUUACGUGUA are -2.19 ± 0.07 and -1.49 ± 0.072.
In the same order, the values of ACGGAGCAAUAUUACGGCGA are -2.01 ± 0.13 and -1.83 ± 0.15.
Take AUAAAGCAAUAUUACGAUCA: the “self-splicing fitness (ln)” value worked out at 0.0672 ± 0.054 (30 °C) and 0.203 ± 0.077 (37 °C).
In the same order, the values of GUUUAGCAAUAUUACGCAAC are -3.59 ± 0.48 and -2.14 ± 0.39.
In the same order, the values of AUUGAGCAAUAUUACGGGAU are -3.29 ± 0.23 and -1.96 ± 0.15.
Taken in the same sequence, the figures for GGUAAGCAAUAUUACGUUUA were -2.68 ± 0.17 and -0.278 ± 0.11.
As for UUGUAGCAAUAUUACGGCUC, the “self-splicing fitness (ln)” value is, setting by setting: (30 °C) -1.79 ± 0.31; (37 °C) 0.26 ± 0.24.
In the same order, the values of CUAAAGCAAUAUUACGACGA are -2.38 ± 0.13 and -0.919 ± 0.15.
As for AGUGAGCAAUAUUACGGAAC, the “self-splicing fitness (ln)” value (30 °C) was -2.5 ± 0.43.
For UGCAAGCAAUAUUACGUUGG, the “self-splicing fitness (ln)” value runs as follows: (30 °C) -2.87 ± 0.12; (37 °C) -2.22 ± 0.14.
Turning to AACAAGCAAUAUUACGAUCC, the “self-splicing fitness (ln)” value was -1.13 ± 0.077 (30 °C) and 0.0585 ± 0.1 (37 °C).
Consider CGACAGCAAUAUUACGUCAG, for which the “self-splicing fitness (ln)” value reads like this: (30 °C) -2.38 ± 0.094; (37 °C) -1.94 ± 0.12.
Taken in the same sequence, the figures for GCACAGCAAUAUUACGGUAG were -3.61 ± 0.15 and -1.98 ± 0.11.
Regarding CAUAAGCAAUAUUACGUCGG, the “self-splicing fitness (ln)” value runs as follows: (30 °C) -0.598 ± 0.061; (37 °C) -0.568 ± 0.087.
Taken in the same sequence, the figures for AGAAAGCAAUAUUACGCUCG were 0.431 ± 0.14 and 0.318 ± 0.18.
On to UUCAAGCAAUAUUACGGGCC, for which, for the setting “37 °C”, the “self-splicing fitness (ln)” value was -2.94 ± 0.48.
As to UCCAAGCAAUAUUACGGCAC, the “self-splicing fitness (ln)” value runs as follows: (30 °C) -4.06 ± 0.29; (37 °C) -0.668 ± 0.11.
In the same order, the values of AUUCAGCAAUAUUACGUACU are 0.26 ± 0.079 and -0.011 ± 0.095.
In the same order, the values of ACGAAGCAAUAUUACGGCCC are -1.25 ± 0.2 and 0.0496 ± 0.26.
In the same order, the values of AUGCAGCAAUAUUACGGAUC are -2.52 ± 0.15 and -2.7 ± 0.14.
Consider ACAAAGCAAUAUUACGCCGA, for which the “self-splicing fitness (ln)” value is, setting by setting: (30 °C) -2.13 ± 0.15; (37 °C) -0.465 ± 0.13.
As for UACUAGCAAUAUUACGCAGA, the “self-splicing fitness (ln)” value is -3.67 ± 0.47 (30 °C) and -2.27 ± 0.22 (37 °C).
Taken in the same sequence, the figures for GAUGAGCAAUAUUACGCACG were -3.63 ± 0.32 and -2.25 ± 0.3.
In the same order, the values of UCUCAGCAAUAUUACGGACG are -1.84 ± 0.14 and -0.508 ± 0.13.
In the same order, the values of GGGUAGCAAUAUUACGCGGA are -2.64 ± 0.27 and -1.06 ± 0.13.
Consider AGAAAGCAAUAUUACGCGAC, for which the “self-splicing fitness (ln)” value reads like this: (30 °C) -2.25 ± 0.15; (37 °C) -1.65 ± 0.18.
As to CGACAGCAAUAUUACGAAUG, the “self-splicing fitness (ln)” value by setting is: (30 °C) -1.1 ± 0.079; (37 °C) -0.112 ± 0.1.
Taken in the same sequence, the figures for GGACAGCAAUAUUACGUCCG were -2.1 ± 0.12 and -1.89 ± 0.18.
In the same order, the values of GUGGAGCAAUAUUACGGGCA are -2.2 ± 0.28 and -1.76 ± 0.45.
In the same order, the values of GCAGAGCAAUAUUACGCAAC are -1.53 ± 0.35 and -2.13 ± 0.43.
For GCACAGCAAUAUUACGGUUC, the “self-splicing fitness (ln)” value is, setting by setting: (30 °C) -0.415 ± 0.055; (37 °C) -0.0499 ± 0.073.
With UGACAGCAAUAUUACGGAUG, the “self-splicing fitness (ln)” value (30 °C) was -0.91 ± 0.054 and the “self-splicing fitness (ln)” value (37 °C) is -0.91 ± 0.075.
In the same order, the values of AGACAGCAAUAUUACGAUGU are -3.43 ± 0.12 and -0.886 ± 0.088.
Taken in the same sequence, the figures for UUGAAGCAAUAUUACGUGUU were -4.53 ± 0.21 and -1.92 ± 0.14.
Taken in the same sequence, the figures for UCCCAGCAAUAUUACGUAAC were -2.45 ± 0.11 and -1.61 ± 0.17.
For CUAGAGCAAUAUUACGGGUG, the “self-splicing fitness (ln)” value runs as follows: (30 °C) 0.162 ± 0.073; (37 °C) -0.643 ± 0.082.
Turning to UAAGAGCAAUAUUACGUGCG, the “self-splicing fitness (ln)” value is, setting by setting: (30 °C) -3.85 ± 0.42; (37 °C) -0.711 ± 0.27.
As to UUGAAGCAAUAUUACGCUUU, the “self-splicing fitness (ln)” value is -3.5 ± 0.23 (30 °C) and -2.56 ± 0.36 (37 °C).
In the same order, the values of UUCGAGCAAUAUUACGCGCA are -0.15 ± 0.13 and -0.296 ± 0.17.
